Test results from patent publication EP4763221A1 (Akeso Biopharma Co., Ltd., dated 2025).

Tests used:
[1] = target: T1, HER3 on SK-BR-3 cell surface (UniProt P21860 20-1342, limits assumed); experiment: FACS on SK-BR-3 cells, anti-human IgG Fc-Alexa Fluor 647 detection
T1 construct: whole, on cells; The target is the HER3 carried on SK-BR-3 cells; also called surface HER3 of SK-BR-3 cells; SK-BR-3 cells expressing HER3

human HER3-his [2] = target: T2, human HER3-his (human, UniProt P21860 20-643); experiment: indirect ELISA, huHER3-his coated at 0.5 µg/mL, goat anti-human IgG Fc-HRP
T2 construct: Coating antigen of the ELISA; also called huHER3-his; antigen human HER3-his; not shown: his tag

human HER3-his [3] = target: T2, human HER3-his; experiment: indirect ELISA, huHER3-his coated at 0.5 µg/mL; antibody 0.001 nM; replicate 1
human HER3-his [4] = target: T2, human HER3-his; experiment: indirect ELISA, huHER3-his coated at 0.5 µg/mL; antibody 0.001 nM; replicate 2
human HER3-his [5] = target: T2, human HER3-his; experiment: indirect ELISA, huHER3-his coated at 0.5 µg/mL; antibody 0.004 nM; replicate 1
human HER3-his [6] = target: T2, human HER3-his; experiment: indirect ELISA, huHER3-his coated at 0.5 µg/mL; antibody 0.004 nM; replicate 2
human HER3-his [7] = target: T2, human HER3-his; experiment: indirect ELISA, huHER3-his coated at 0.5 µg/mL; antibody 0.012 nM; replicate 1
human HER3-his [8] = target: T2, human HER3-his; experiment: indirect ELISA, huHER3-his coated at 0.5 µg/mL; antibody 0.012 nM; replicate 2
human HER3-his [9] = target: T2, human HER3-his; experiment: indirect ELISA, huHER3-his coated at 0.5 µg/mL; antibody 0.037 nM; replicate 1
human HER3-his [10] = target: T2, human HER3-his; experiment: indirect ELISA, huHER3-his coated at 0.5 µg/mL; antibody 0.037 nM; replicate 2
human HER3-his [11] = target: T2, human HER3-his; experiment: indirect ELISA, huHER3-his coated at 0.5 µg/mL; antibody 0.111 nM; replicate 1
human HER3-his [12] = target: T2, human HER3-his; experiment: indirect ELISA, huHER3-his coated at 0.5 µg/mL; antibody 0.111 nM; replicate 2
human HER3-his [13] = target: T2, human HER3-his; experiment: indirect ELISA, huHER3-his coated at 0.5 µg/mL; antibody 0.333 nM; replicate 1
human HER3-his [14] = target: T2, human HER3-his; experiment: indirect ELISA, huHER3-his coated at 0.5 µg/mL; antibody 0.333 nM; replicate 2
human HER3-his [15] = target: T2, human HER3-his; experiment: indirect ELISA, huHER3-his coated at 0.5 µg/mL; antibody 1.000 nM; replicate 1
human HER3-his [16] = target: T2, human HER3-his; experiment: indirect ELISA, huHER3-his coated at 0.5 µg/mL; antibody 1.000 nM; replicate 2
human HER3-his [17] = target: T2, human HER3-his; experiment: indirect ELISA, huHER3-his coated at 0.5 µg/mL; antibody 0 nM (blank, background); replicate 1
human HER3-his [18] = target: T2, human HER3-his; experiment: indirect ELISA, huHER3-his coated at 0.5 µg/mL; antibody 0 nM (blank, background); replicate 2

B1: anti-HER3 monoclonal antibody patritumab (antibody, human IgG1, kappa, V domains shown)
VH: QVQLQQWGAGLLKPSETLSLTCAVYGGSFSGYYWSWIRQPPGKGLEWIGEINHSGSTNYNPSLKSRVTISVETSKNQFSLKLSSVTAADTAVYYCARDKWTWYFDLWGRGTLVTVSS
VL: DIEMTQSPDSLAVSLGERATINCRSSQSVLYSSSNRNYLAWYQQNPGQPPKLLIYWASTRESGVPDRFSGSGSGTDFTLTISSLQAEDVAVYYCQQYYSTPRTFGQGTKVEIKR
notes: IgG1/kappa, expressed in 293F cells; also called HER3-targeted monoclonal antibody patritumab
EC50 [1]: 8.48 nM
EC50 (human HER3-his [2]): 0.009 nM
absorbance at 450 nm (human HER3-his [3]): 0.382 OD450
absorbance at 450 nm (human HER3-his [4]): 0.394 OD450
absorbance at 450 nm (human HER3-his [5]): 0.87 OD450
absorbance at 450 nm (human HER3-his [6]): 0.872 OD450
absorbance at 450 nm (human HER3-his [7]): 1.78 OD450
absorbance at 450 nm (human HER3-his [8]): 1.77 OD450
absorbance at 450 nm (human HER3-his [9]): 2.57 OD450
absorbance at 450 nm (human HER3-his [10]): 2.57 OD450
absorbance at 450 nm (human HER3-his [11]): 2.83 OD450
absorbance at 450 nm (human HER3-his [12]): 2.79 OD450
absorbance at 450 nm (human HER3-his [13]): 2.89 OD450
absorbance at 450 nm (human HER3-his [14]): 2.86 OD450
absorbance at 450 nm (human HER3-his [15]): 2.87 OD450
absorbance at 450 nm (human HER3-his [16]): 2.84 OD450
absorbance at 450 nm (human HER3-his [17]): 0.091 OD450
absorbance at 450 nm (human HER3-his [18]): 0.087 OD450
